Series [1] addresses recombinant human ADAM protein (metalloprotease region and disintegrin region expressed in Escherichia coli from plasmid pMDH) (human) (UniProt Q9UKQ2). The series can be described thus: cell-based or functional assay.
Series [2] addresses T1, Nma-Pro-Lys-Pro-Leu-Ala-Nva-Trp-Lys(DNP)-NH2.
T1 chain: PKPLAXWK

In series [3] the target is T2, MOCAc-Arg-Pro-Lys-Pro-Tyr-Ala-Nva-Trp-Met-Lys(DNP)-NH2.
T2 chain: RPKPYAXWMK

For the molecule “N-CBZ-Pro-Leu-Gly-hydroxamate (Sigma C8537) (peptide)”, the IC50 value (concentration of a test compound which 50% inhibits the protease activity) in series [1] came to 0.1 mM.

B1: recombinant human ADAM protein (metalloprotease region and disintegrin region expressed in Escherichia coli from plasmid pMDH) (protein)
chain: VQEHEKYIEYYLVLDNGEFKRYNENQDEIRKRVFEMANYVNMLYKKLNTHVALVGMEIWTDKDKIKITPNASFTLENFSKWRGSVLSRRKRHDIAQLITATELAGTTVGLAFMSTMCSPYSVGVVQDHSDNLLRVAGTMAHEMGHNFGMFHDDYSCKCPSTICVMDKALSFYIPTDFSSCSRLSYDKFFEDKLSNCLFNAPLPTDIISTPICGNQLVEMGEDCDCGTSEECTNICCDAKTCKIKATFQCALGECCEKCQFKKAGMVCRPAKDECDLPEMCNGKSGNCPDDRFQVNGF
As for B1, the “fluorescent intensity (excitation 340 nm, measuring 450 nm) after 2 hours at 37 C” value in series [2] was “the fluorescent intensity in the case of addition of the enzyme solution was 180”. Moreover, the “fluorescent intensity (excitation 328 nm, 393 nm) after 22 hours at 37 C” value in series [3] is “the fluorescent intensity of 70 was shown when the protein was added”.

Values taken from US20040132157A1.
